Like-named read-outs stand apart in the source and are kept apart here. Ends that are not written are not given here.
Key:
[1] = Solubility of peptides and protein fragments; assay type: physicochemical
[2] = molecular target: T1, talin R8 domain (Mus musculus, UniProt P26039); experiment: 1H,15N-HSQC NMR titration of talin R8 with peptides; assay type: binding
T1 construct: conducted using 0.1 mM [^15N]talin R8 domain; hexa-histidine tag followed by TEV protease cleavage site (N, cleaved yes); made in house; host or cells: E. coli BL21 STAR (DE3)
T1 sequence (P26039 1461-1580 limits assumed): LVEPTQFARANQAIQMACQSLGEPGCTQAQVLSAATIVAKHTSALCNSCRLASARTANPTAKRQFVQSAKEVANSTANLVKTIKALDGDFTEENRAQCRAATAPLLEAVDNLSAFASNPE
Experimental: NMR spectra were collected on Bruker Avance III 600- and 800-MHz spectrometers equipped with CryoProbes. Experiments were performed at 298 K in 20 mM sodium phosphate (pH 6.5) and 50 mM NaCl with 5% (v/v) ^2H2O. Dissociation constants were evaluated from the ^1H,^15N-HSQC chemical-shift changes in the titration experiments conducted using 0.1 mM [^15N]talin R8 domain. Peptides were added from 5- to 10-mM stock solutions to generate titration points at peptide/protein ratios 0.1, 0.2, 0.5, 0.75, 1, 2, 4, and 8.
NMR Spectroscopy - Spectra were processed with TopSpin (Bruker) and analysed using CCPN Analysis (Vranken et al., 2005). […] The changes in chemical shift of 15N-talin R8 domain were calculated from 1H,15N-HSQC spectra as Δδ=√(ΔδH2+(ΔδN*0.15)2). The cross-peaks corresponding to the bound state were assigned by following chemical shift changes throughout the R8 titration with the increasing amount of peptides.
Dissociation constants were evaluated from the 1H,15N-HSQC chemical shift changes in the titration experiments conducted using 0.1 mM 15N-talin R8 domain. Peptides were added from 5-10 mM stock solutions to generate titration points at 0.1, 0.2, 0.5, 0.75, 1, 2, 4 and 8 peptide:protein ratios.
Concentrations of the DLC1 and RIAM peptides were determined from UV absorbance at 280 nm. […]
Concentration of the R8 domain that lacks UV-active aromatic residues was estimated from the comparison with the spectra of the R3 domain that has similar molecular weight and shape using the calibration procedure described in (Wider and Dreier, 2006). Dissociation constants were determined by fitting the chemical shift changes to the equation:
( ) ( ) [𝑃] + [𝐿] + 𝐾𝑑 − √([𝑃] + [𝐿] + 𝐾𝑑)2 − 4[𝑃][𝐿] where ∆(𝐻, 𝑁)0 is the weighted chemical shift difference at saturation, [P] and [L] are protein and ligand concentrations, respectively. Data were fitted independently for the well-resolved peaks and the average Kd was calculated from 3 different peaks with the lowest standard deviations of the fits. […]

DLC1(467–489): synthetic DLC1 peptide, residues 467–489; shorter fragment used for crystallization
solubility [1]: less soluble than the longer fragment
chemical-shift changes / broadening of talin R8 on peptide addition ([2]; 1H,15N-HSQC, talin R8, 298 K, pH 6.5, 4-fold excess of peptide (DLC1(467–489), paxillin LD1) or titration): large chemical-shift changes

ENEDIFPELDDILYHVKGMQRIVNQWSEK [DLC1(461–489)]
Kd ([2]; read-out: KD determined by fitting chemical-shift changes): 48 µM

MDDLDALLADLESTTS [paxillin LD1]
Kd [2]: 168 µM

Reference: article PMC4938799, “LD Motif Recognition by Talin: Structure of the Talin-DLC1 Complex” (Structure(London, England:1993), 2016)
